Assay results taken from PMC6757032 (Nature Communications, 2019).

Experiments:
[1] = biological target: T1, full-length rat syntaxin-1A (reconstituted in liposomes, S-liposomes) (rat, UniProt P32851 1-288); assay: SEC; S-liposomes (2.29 mM lipid) with full-length syntaxin-1A incubated 1 h with 1.2 µM αSNAP or 1.2 µM Munc18-1, then mixed with 1.2 µM of the other (at once or 12 h at 4 °C); 25 mM HEPES pH 7.4, 150 mM KCl, 1 mM TCEP; liposomes and bound proteins elute near the void volume; settings: both partners purified
T1 construct: syntaxin-1A, rat, full length; For the NMR experiments the protein was 2H-I-13CH3-labelled (isoleucine delta1 methyl groups); also called Syx WT; liposome-anchored syntaxin-1; source: E. coli BL21(DE3), purified (Ni-NTA, thrombin, Superdex 200 in DPC), reconstituted in liposomes

[2] = biological target: T1, full-length rat syntaxin-1A …; assay: liposome co-floatation; S-liposomes (0.75 mM lipid) with full-length syntaxin-1A pre-incubated 1 h at room temperature with 3 µM αSNAP (C-terminal His6-linker) or 3 µM Munc18-1, then 0-15 µM of the other protein (with or without 2.4 µM NSF) or 3 µM Munc18-1 at 4 °C for various times; Histodenz gradient, top layer by SDS-PAGE and Coomassie blue; settings: both partners purified

T1 sequence (P32851 whole entry): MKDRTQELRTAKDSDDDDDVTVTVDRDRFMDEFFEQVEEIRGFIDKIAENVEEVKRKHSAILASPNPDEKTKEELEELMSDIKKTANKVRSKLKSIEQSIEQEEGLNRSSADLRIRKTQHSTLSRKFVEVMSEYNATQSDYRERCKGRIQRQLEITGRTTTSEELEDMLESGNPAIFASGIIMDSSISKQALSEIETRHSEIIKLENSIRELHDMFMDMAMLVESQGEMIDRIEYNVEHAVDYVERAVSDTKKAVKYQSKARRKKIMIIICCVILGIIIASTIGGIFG

B1: full-length Bos Taurus αSNAP (natural protein, UniProt P81125 1-295, looked up)
chain: MDNSGKEAEAMALLAEAERKVKNSQSFFSGLFGGSSKIEEACEIYARAANMFKMAKNWSAAGSAFCQAAHVHLQLQSKHDAATCFVDAGNAFKKADPQEAINCLMRAIEIYTDMGRFTIAAKHHISIAEIYETELVDIEKAIAHYEQSADYYKGEESNSSANKCLLKVAGYAAQLEQYQKAIDIYEQVGTNAMDSPLLKYSAKDYFFKAALCHFCIDMLNAKLAVQKYEELFPAFSDSRECKRIKKLLEAHEEQNVDSYTEAVKEYDSISRLDQWLTTMLLRIKKTIQGDEEDLR
notes: alpha-SNAP, Bos taurus, full length; also called WT αSNAP; source: E. coli BL21(DE3), purified (Glutathione Sepharose, thrombin, Superdex 75)
binding result [1]: binds

B2: αSNAP with a C-terminal His6-linker (…) (natural protein, Bos Taurus, UniProt P81125 1-295, looked up)
chain: B1 chain
notes: Used in all liposome co-floatation assays so that the syntaxin-1 and αSNAP bands separate on the gels; also called αSNAP containing a linker at the C terminus; source: E. coli BL21(DE3), purified as the unmodified construct
binding result [2]: binds
